Reference: IntAct's records for PubMed 20059950

B1: RAC-beta serine/threonine-protein kinase (Homo sapiens), P31751 (parent)
chain: MNEVSVIKEGWLHKRGEYIKTWRPRYFLLKSDGSFIGYKERPEAPDQTLPPLNNFSVAECQLMKTERPRPNTFVIRCLQWTTVIERTFHVDSPDEREEWMRAIQMVANSLKQRAPGEDPMDYKCGSPSDSSTTEEMEVAVSKARAKVTMNDFDYLKLLGKGTFGKVILVREKATGRYYAMKILRKEVIIAKDEVAHTVTESRVLQNTRHPFLTALKYAFQTHDRLCFVMEYANGGELFFHLSRERVFTEERARFYGAEIVSALEYLHSRDVVYRDIKLENLMLDKDGHIKITDFGLCKEGISDGATMKTFCGTPEYLAPEVLEDNDYGRAVDWWGLGVVMYEMMCGRLPFYNQDHERLFELILMEEIRFPRTLSPEAKSLLAGLLKKDPKQRLGGGPSDAKEVMEHRFFLSINWQDVVQKKLLPPFKPQVTSEVDTRYFDDEFTAQSITITPPDRYDSLGLLELDQRTHFPQFSYSASIRE

Variants of: B1
Details: with ttc3_human TTC3, P53804
Chain of ttc3_human TTC3, P53804 (P53804 whole entry): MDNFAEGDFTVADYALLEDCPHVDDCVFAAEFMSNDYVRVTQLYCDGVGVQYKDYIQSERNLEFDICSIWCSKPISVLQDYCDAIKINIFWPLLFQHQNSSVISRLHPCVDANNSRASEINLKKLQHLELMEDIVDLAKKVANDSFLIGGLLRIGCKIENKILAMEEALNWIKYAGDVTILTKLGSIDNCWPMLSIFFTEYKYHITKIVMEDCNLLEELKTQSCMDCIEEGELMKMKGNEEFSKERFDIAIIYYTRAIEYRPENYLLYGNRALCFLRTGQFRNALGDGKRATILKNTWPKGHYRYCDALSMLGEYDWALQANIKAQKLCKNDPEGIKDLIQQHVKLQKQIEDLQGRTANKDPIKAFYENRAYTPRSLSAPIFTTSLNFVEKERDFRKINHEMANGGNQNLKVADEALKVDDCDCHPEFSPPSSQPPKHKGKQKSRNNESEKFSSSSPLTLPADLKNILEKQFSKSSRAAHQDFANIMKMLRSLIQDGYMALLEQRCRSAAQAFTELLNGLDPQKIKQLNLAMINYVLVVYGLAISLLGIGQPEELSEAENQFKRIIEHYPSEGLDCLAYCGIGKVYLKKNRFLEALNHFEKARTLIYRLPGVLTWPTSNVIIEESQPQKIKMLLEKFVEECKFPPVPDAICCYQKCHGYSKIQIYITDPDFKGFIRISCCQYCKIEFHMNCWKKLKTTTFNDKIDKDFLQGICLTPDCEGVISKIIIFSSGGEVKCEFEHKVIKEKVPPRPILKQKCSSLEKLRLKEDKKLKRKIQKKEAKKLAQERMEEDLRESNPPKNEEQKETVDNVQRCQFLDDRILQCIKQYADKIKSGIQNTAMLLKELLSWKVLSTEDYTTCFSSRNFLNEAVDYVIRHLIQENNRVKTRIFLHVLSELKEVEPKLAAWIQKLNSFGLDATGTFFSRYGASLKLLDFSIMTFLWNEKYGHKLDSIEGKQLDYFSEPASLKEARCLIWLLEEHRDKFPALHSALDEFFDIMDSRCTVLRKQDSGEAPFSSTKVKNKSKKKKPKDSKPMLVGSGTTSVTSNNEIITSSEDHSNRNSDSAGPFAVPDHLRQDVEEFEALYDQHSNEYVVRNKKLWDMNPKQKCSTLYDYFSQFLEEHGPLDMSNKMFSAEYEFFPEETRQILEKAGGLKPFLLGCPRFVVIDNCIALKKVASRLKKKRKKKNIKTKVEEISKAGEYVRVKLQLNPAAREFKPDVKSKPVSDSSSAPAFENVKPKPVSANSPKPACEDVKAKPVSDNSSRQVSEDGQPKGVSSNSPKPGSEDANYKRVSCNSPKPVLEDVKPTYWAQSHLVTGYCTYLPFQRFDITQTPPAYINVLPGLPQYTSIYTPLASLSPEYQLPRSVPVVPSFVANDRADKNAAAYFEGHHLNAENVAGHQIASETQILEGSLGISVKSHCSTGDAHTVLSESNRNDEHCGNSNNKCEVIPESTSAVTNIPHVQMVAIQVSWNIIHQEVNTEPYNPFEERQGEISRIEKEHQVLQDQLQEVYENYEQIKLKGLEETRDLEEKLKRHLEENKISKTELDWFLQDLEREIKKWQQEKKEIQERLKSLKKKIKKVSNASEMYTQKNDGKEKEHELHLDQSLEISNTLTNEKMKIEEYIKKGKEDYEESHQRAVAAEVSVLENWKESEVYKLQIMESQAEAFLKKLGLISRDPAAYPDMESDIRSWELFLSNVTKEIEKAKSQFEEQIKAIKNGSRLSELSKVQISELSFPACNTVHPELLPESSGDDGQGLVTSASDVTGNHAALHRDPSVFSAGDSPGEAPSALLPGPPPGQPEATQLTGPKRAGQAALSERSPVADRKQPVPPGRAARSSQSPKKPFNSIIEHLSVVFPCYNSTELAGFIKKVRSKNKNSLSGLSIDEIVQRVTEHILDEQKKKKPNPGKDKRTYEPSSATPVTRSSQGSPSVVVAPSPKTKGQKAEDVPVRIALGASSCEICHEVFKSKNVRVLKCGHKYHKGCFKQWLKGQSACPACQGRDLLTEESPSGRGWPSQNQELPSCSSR
With T309A;S474A the “effect of a mutation on the interaction” value was “disrupting interaction strength”.
